The target of the test is T1, sfGFP-MinD^D40AΔ10 (E. coli MG1655, UniProt P0AEZ3 1-260, D40A).
T1 construct: MinD of E. coli MG1655 with the D40A mutation and deletion of the C-terminal 10 amino acids, made from pET15-sfGFP-minD; 55 kDa after removal of the 2 kDa His-Tag (so in the source); also called MinD mutant treated by thrombin; His-sfGFP-MinD^D40AΔ10 (before cleavage); not shown: His tag, N-terminal, cleaved; sfGFP, N-terminal, kept
T1 sequence (looked up): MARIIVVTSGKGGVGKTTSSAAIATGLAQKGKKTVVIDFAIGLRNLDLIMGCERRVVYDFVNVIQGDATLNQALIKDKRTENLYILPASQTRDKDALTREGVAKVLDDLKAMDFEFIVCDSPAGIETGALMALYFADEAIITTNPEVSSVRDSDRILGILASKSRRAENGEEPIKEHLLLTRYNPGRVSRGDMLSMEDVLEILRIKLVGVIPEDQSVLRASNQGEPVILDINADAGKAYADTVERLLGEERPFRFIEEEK
In words: pull-down; His-tagged Min protein held on cOmplete His-Tag purification (Ni-NTA) resin; 9 µM MinE-mCherry-His, 3 µM His-sfGFP-MinD or 6 µM thrombin-treated MinD^D40AΔ10, with or without 3 µM BSA; RE buffer, 30 min, room temperature; washed with 20 mM imidazole, eluted with 250 mM imidazole; SDS-PAGE and CBB staining. The settings on record: both partners purified.

B1: MinE-mCherry-His (natural protein, E. coli K12 MG1655, UniProt P0A734 1-88, looked up)
chain: MALLDFFLSRKKNTANIAKERLQIIVAERRRSDAEPHYLPQLRKDILEVICKYVQIDPEMVTVQLEQKDGDISILELNVTLPEAEELK
notes: MinE, gene amplified from the E. coli K12 MG1655 genome and cloned into pET29a with mCherry (pET29-minE-mCherry-His); The 6xHis-tag was attached at the C-terminal of mCherry by PCR; the mCherry gene came from the pET21b-RL027A plasmid (Addgene); source: E. coli BL21-CodonPlus(DE3) RIPL, purified (His-Tag purification resin, HiTrap Q HP); not shown: mCherry, C-terminal, kept; 6xHis, C-terminal, …
Consider B1, for which the binding result is listed as “binds”.
